According to article PMC10786891, “Massively parallel profiling of RNA-targeting CRISPR-Cas13d”:

T1: EsCas13d, nuclease-dead (Eubacterium siraeum, UniProt B0MS50, R295A;H300A;R849A;H854A)
T1 sequence: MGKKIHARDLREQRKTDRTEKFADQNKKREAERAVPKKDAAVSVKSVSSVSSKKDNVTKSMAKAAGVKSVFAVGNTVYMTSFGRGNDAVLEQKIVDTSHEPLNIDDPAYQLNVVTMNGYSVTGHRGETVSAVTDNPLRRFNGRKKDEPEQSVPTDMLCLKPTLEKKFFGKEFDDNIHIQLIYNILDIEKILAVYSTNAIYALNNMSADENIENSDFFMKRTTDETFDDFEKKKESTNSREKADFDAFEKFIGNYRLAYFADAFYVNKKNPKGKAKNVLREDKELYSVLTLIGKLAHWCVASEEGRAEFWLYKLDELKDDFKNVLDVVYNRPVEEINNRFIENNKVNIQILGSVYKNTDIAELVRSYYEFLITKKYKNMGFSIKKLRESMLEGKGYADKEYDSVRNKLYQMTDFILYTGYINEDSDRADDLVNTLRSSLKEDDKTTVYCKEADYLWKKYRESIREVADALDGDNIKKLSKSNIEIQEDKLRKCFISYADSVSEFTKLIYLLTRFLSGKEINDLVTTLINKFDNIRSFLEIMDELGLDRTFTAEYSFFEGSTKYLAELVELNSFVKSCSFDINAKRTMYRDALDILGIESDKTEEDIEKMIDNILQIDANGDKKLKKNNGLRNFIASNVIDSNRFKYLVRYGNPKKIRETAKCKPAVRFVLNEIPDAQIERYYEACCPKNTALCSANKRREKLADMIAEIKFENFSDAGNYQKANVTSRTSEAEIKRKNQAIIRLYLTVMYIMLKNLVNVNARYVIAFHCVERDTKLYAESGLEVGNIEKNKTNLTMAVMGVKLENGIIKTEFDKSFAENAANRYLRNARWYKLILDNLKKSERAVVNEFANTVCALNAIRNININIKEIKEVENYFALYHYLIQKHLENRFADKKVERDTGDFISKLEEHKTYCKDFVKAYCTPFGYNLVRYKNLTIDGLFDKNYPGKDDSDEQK


Molecular target: T1, EsCas13d, nuclease-dead
Experiment: crRNA (strand 1, pre-loaded); Mg2+; 40 mM Tris-HCl pH 7.5, 150 mM NaCl, 6 mM MgCl2, 1 mM DTT, 0.1% Tween-20, 0.2 mg/ml BSA; 25 C; 10 min per concentration, then washed
Conditions: tags: His6-TwinStrep-SUMO cleaved; N-terminal SNAP kept (SNAP-Surface 488); label: 3' end held by stalled T7 RNA polymerase

Binder	Kd [nM]
target 2 MT 5'PFS AGA 3'PFS UGU (mixed) RNA 1: CACCCGUGCAAAAUUGCAGGGGUCUAAAACCUUCUCCAAAUUGUUUCAUCCU RNA 2: GGGAAUGGAUCCACAUCUACGAAUUCAGAAGGAUGAAACAAUUUGGAGAAGUGUAGAUCGGAAGAGCACACGU	9.5 ± 1.2
target 2 MT 5'PFS AUG 3'PFS UUU (mixed) RNA 1: CACCCGUGCAAAAUUGCAGGGGUCUAAAACCUUCUCCAAAUUGUUUCAUCCU RNA 2: GGGAAUGGAUCCACAUCUACGAAUUCAUGAGGAUGAAACAAUUUGGAGAAGUUUAGAUCGGAAGAGCACACGU	25 ± 6
target 2 MT 5'PFS CUA 3'PFS UCU (mixed) RNA 1: CACCCGUGCAAAAUUGCAGGGGUCUAAAACCUUCUCCAAAUUGUUUCAUCCU RNA 2: GGGAAUGGAUCCACAUCUACGAAUUCCUAAGGAUGAAACAAUUUGGAGAAGUCUAGAUCGGAAGAGCACACGU	3.6 ± 0.4
target 2 MT 5'PFS GCC 3'PFS UAU (mixed) RNA 1: CACCCGUGCAAAAUUGCAGGGGUCUAAAACCUUCUCCAAAUUGUUUCAUCCU RNA 2: GGGAAUGGAUCCACAUCUACGAAUUCGCCAGGAUGAAACAAUUUGGAGAAGUAUAGAUCGGAAGAGCACACGU	22 ± 4
target 2 MT 5'PFS CUU 3'PFS UUU (mixed) RNA 1: CACCCGUGCAAAAUUGCAGGGGUCUAAAACCUUCUCCAAAUUGUUUCAUCCU RNA 2: GGGAAUGGAUCCACAUCUACGAAUUCCUUAGGAUGAAACAAUUUGGAGAAGUUUAGAUCGGAAGAGCACACGU	8.4 ± 0.7
target 2 MT 5'PFS UGG 3'PFS ACU (mixed) RNA 1: CACCCGUGCAAAAUUGCAGGGGUCUAAAACCUUCUCCAAAUUGUUUCAUCCU RNA 2: GGGAAUGGAUCCACAUCUACGAAUUCUGGAGGAUGAAACAAUUUGGAGAAGACUAGAUCGGAAGAGCACACGU	9.5 ± 1.3
target 2 MT 5'PFS CUA 3'PFS UCA (mixed) RNA 1: CACCCGUGCAAAAUUGCAGGGGUCUAAAACCUUCUCCAAAUUGUUUCAUCCU RNA 2: GGGAAUGGAUCCACAUCUACGAAUUCCUAAGGAUGAAACAAUUUGGAGAAGUCAAGAUCGGAAGAGCACACGU	2.17 ± 0.35
target 2 MT 5'PFS CUC 3'PFS UUG (mixed) RNA 1: CACCCGUGCAAAAUUGCAGGGGUCUAAAACCUUCUCCAAAUUGUUUCAUCCU RNA 2: GGGAAUGGAUCCACAUCUACGAAUUCCUCAGGAUGAAACAAUUUGGAGAAGUUGAGAUCGGAAGAGCACACGU	3.2 ± 0.5
target 2 MT 5'PFS GCA 3'PFS UUA (mixed) RNA 1: CACCCGUGCAAAAUUGCAGGGGUCUAAAACCUUCUCCAAAUUGUUUCAUCCU RNA 2: GGGAAUGGAUCCACAUCUACGAAUUCGCAAGGAUGAAACAAUUUGGAGAAGUUAAGAUCGGAAGAGCACACGU	17 ± 4
target 2 MT 5'PFS CUC 3'PFS CCA (mixed) RNA 1: CACCCGUGCAAAAUUGCAGGGGUCUAAAACCUUCUCCAAAUUGUUUCAUCCU RNA 2: GGGAAUGGAUCCACAUCUACGAAUUCCUCAGGAUGAAACAAUUUGGAGAAGCCAAGAUCGGAAGAGCACACGU	4.8 ± 0.7
target 2 MT 5'PFS AGG 3'PFS CAU (mixed) RNA 1: CACCCGUGCAAAAUUGCAGGGGUCUAAAACCUUCUCCAAAUUGUUUCAUCCU RNA 2: GGGAAUGGAUCCACAUCUACGAAUUCAGGAGGAUGAAACAAUUUGGAGAAGCAUAGAUCGGAAGAGCACACGU	4.6 ± 0.6
target 2 MT 5'PFS CUA 3'PFS UCC (mixed) RNA 1: CACCCGUGCAAAAUUGCAGGGGUCUAAAACCUUCUCCAAAUUGUUUCAUCCU RNA 2: GGGAAUGGAUCCACAUCUACGAAUUCCUAAGGAUGAAACAAUUUGGAGAAGUCCAGAUCGGAAGAGCACACGU	3.4 ± 0.5
target 2 MT 5'PFS UGC 3'PFS UUA (mixed) RNA 1: CACCCGUGCAAAAUUGCAGGGGUCUAAAACCUUCUCCAAAUUGUUUCAUCCU RNA 2: GGGAAUGGAUCCACAUCUACGAAUUCUGCAGGAUGAAACAAUUUGGAGAAGUUAAGAUCGGAAGAGCACACGU	~27
target 2 MT 5'PFS CUC 3'PFS CCU (mixed) RNA 1: CACCCGUGCAAAAUUGCAGGGGUCUAAAACCUUCUCCAAAUUGUUUCAUCCU RNA 2: GGGAAUGGAUCCACAUCUACGAAUUCCUCAGGAUGAAACAAUUUGGAGAAGCCUAGAUCGGAAGAGCACACGU	23 ± 7
target 2 MT 5'PFS UGG 3'PFS ACA (mixed) RNA 1: CACCCGUGCAAAAUUGCAGGGGUCUAAAACCUUCUCCAAAUUGUUUCAUCCU RNA 2: GGGAAUGGAUCCACAUCUACGAAUUCUGGAGGAUGAAACAAUUUGGAGAAGACAAGAUCGGAAGAGCACACGU	6 ± 0.7
target 2 MT 5'PFS CUC 3'PFS CCG (mixed) RNA 1: CACCCGUGCAAAAUUGCAGGGGUCUAAAACCUUCUCCAAAUUGUUUCAUCCU RNA 2: GGGAAUGGAUCCACAUCUACGAAUUCCUCAGGAUGAAACAAUUUGGAGAAGCCGAGAUCGGAAGAGCACACGU	2.21 ± 0.24
target 2 MT 5'PFS UGC 3'PFS UUC (mixed) RNA 1: CACCCGUGCAAAAUUGCAGGGGUCUAAAACCUUCUCCAAAUUGUUUCAUCCU RNA 2: GGGAAUGGAUCCACAUCUACGAAUUCUGCAGGAUGAAACAAUUUGGAGAAGUUCAGAUCGGAAGAGCACACGU	~40
target 2 MT 5'PFS UGG 3'PFS ACG (mixed) RNA 1: CACCCGUGCAAAAUUGCAGGGGUCUAAAACCUUCUCCAAAUUGUUUCAUCCU RNA 2: GGGAAUGGAUCCACAUCUACGAAUUCUGGAGGAUGAAACAAUUUGGAGAAGACGAGAUCGGAAGAGCACACGU	5.5 ± 0.4
target 2 MT 5'PFS GGU 3'PFS CAC (mixed) RNA 1: CACCCGUGCAAAAUUGCAGGGGUCUAAAACCUUCUCCAAAUUGUUUCAUCCU RNA 2: GGGAAUGGAUCCACAUCUACGAAUUCGGUAGGAUGAAACAAUUUGGAGAAGCACAGAUCGGAAGAGCACACGU	14.8 ± 2.2
target 2 MT 5'PFS AUU 3'PFS AAG (mixed) RNA 1: CACCCGUGCAAAAUUGCAGGGGUCUAAAACCUUCUCCAAAUUGUUUCAUCCU RNA 2: GGGAAUGGAUCCACAUCUACGAAUUCAUUAGGAUGAAACAAUUUGGAGAAGAAGAGAUCGGAAGAGCACACGU	5.6 ± 0.6
target 2 MT 5'PFS GGU 3'PFS CAA (mixed) RNA 1: CACCCGUGCAAAAUUGCAGGGGUCUAAAACCUUCUCCAAAUUGUUUCAUCCU RNA 2: GGGAAUGGAUCCACAUCUACGAAUUCGGUAGGAUGAAACAAUUUGGAGAAGCAAAGAUCGGAAGAGCACACGU	8.6 ± 1.4
target 2 MT 5'PFS GGU 3'PFS CAG (mixed) RNA 1: CACCCGUGCAAAAUUGCAGGGGUCUAAAACCUUCUCCAAAUUGUUUCAUCCU RNA 2: GGGAAUGGAUCCACAUCUACGAAUUCGGUAGGAUGAAACAAUUUGGAGAAGCAGAGAUCGGAAGAGCACACGU	13 ± 1
target 2 MT 5'PFS GGU 3'PFS CAU (mixed) RNA 1: CACCCGUGCAAAAUUGCAGGGGUCUAAAACCUUCUCCAAAUUGUUUCAUCCU RNA 2: GGGAAUGGAUCCACAUCUACGAAUUCGGUAGGAUGAAACAAUUUGGAGAAGCAUAGAUCGGAAGAGCACACGU	14.9 ± 2.3
target 2 MT 5'PFS UGG 3'PFS ACC (mixed) RNA 1: CACCCGUGCAAAAUUGCAGGGGUCUAAAACCUUCUCCAAAUUGUUUCAUCCU RNA 2: GGGAAUGGAUCCACAUCUACGAAUUCUGGAGGAUGAAACAAUUUGGAGAAGACCAGAUCGGAAGAGCACACGU	27 ± 6
target 1 insA 3' of 8,insA 3' of 8 (mixed) RNA 1: CACCCGUGCAAAAAUGCAGGGGUCUAAAACUGAGCGGAUAACCUCUCUAUGG RNA 2: GGGAAUGGAUCCACAUCUACGAAUUCGUACCAUAGAGAGGUUAUAACCGCUCACCGAGAUCGGAAGAGCACACGU	32.2 ± 3.2
target 1 A1C,C2G (mixed) RNA 1: CACCCGUGCAAAAAUGCAGGGGUCUAAAACUGAGCGGAUAACCUCUCUAUGG RNA 2: GGGAAUGGAUCCACAUCUACGAAUUCGUACCAUAGAGAGGUUAUCCGCUGCCCGAGAUCGGAAGAGCACACGU	35 ± 4
target 1 insU 3' of 12,insC 3' of 1 (mixed) RNA 1: CACCCGUGCAAAAAUGCAGGGGUCUAAAACUGAGCGGAUAACCUCUCUAUGG RNA 2: GGGAAUGGAUCCACAUCUACGAAUUCGUACCAUAGAGAGGUUUAUCCGCUCACCCGAGAUCGGAAGAGCACACGU	8.9 ± 0.7
target 1 C2G (mixed) RNA 1: CACCCGUGCAAAAAUGCAGGGGUCUAAAACUGAGCGGAUAACCUCUCUAUGG RNA 2: GGGAAUGGAUCCACAUCUACGAAUUCGUACCAUAGAGAGGUUAUCCGCUGACCGAGAUCGGAAGAGCACACGU	8.3 ± 0.6
